No end group written: not given here. modified Toyopearl AF‑Amino‑650M resin = not defined here
Tests used:
[1] = target: Human polyclonal immunoglobulin G (IgG), lyophilized, Equitech-Bio, Inc. (human); assay: affinity chromatography of IgG from cMEM, yield = IgG eluted / IgG loaded; cycle 25, 24 washes with 0.1 M NaOH
[2] = target: Human polyclonal immunoglobulin G (IgG), lyophilized, Equitech-Bio, Inc. (human); assay: affinity chromatography of IgG from cMEM, yield = IgG eluted / IgG loaded; cycle 100, 99 washes with 0.5 M NaOH
[3] = target: Human polyclonal immunoglobulin G (IgG), lyophilized, Equitech-Bio, Inc. (human); assay: affinity chromatography of IgG from cMEM, yield = IgG eluted / IgG loaded; cycle 75, 74 washes with 0.5 M NaOH
[4] = target: Human polyclonal immunoglobulin G (IgG), lyophilized, Equitech-Bio, Inc. (human); assay: affinity chromatography of IgG from cMEM, yield = IgG eluted / IgG loaded; cycle 20, 19 washes with 1 M NaOH
[5] = target: Human polyclonal immunoglobulin G (IgG), lyophilized, Equitech-Bio, Inc. (human); assay: affinity chromatography of IgG from cMEM, yield = IgG eluted / IgG loaded; cycle 50, 49 washes with 1 M NaOH
[6] = target: Human polyclonal immunoglobulin G (IgG), lyophilized, Equitech-Bio, Inc. (human); assay: affinity chromatography of IgG from cMEM, yield = IgG eluted / IgG loaded; cycle 10, 9 washes with 1 M NaOH
[7] = target: Human polyclonal immunoglobulin G (IgG), lyophilized, Equitech-Bio, Inc. (human); assay: affinity chromatography of IgG from cMEM, yield = IgG eluted / IgG loaded; cycle 100, 99 washes with 0.1 M NaOH
[8] = target: Human polyclonal immunoglobulin G (IgG), lyophilized, Equitech-Bio, Inc. (human); assay: affinity chromatography of IgG from cMEM, yield = IgG eluted / IgG loaded; cycle 1, 0 washes with 1 M NaOH
[9] = target: Human polyclonal immunoglobulin G (IgG), lyophilized, Equitech-Bio, Inc. (human); assay: affinity chromatography of IgG from cMEM, yield = IgG eluted / IgG loaded; cycle 200, 199 washes with 0.1 M NaOH
[10] = target: Human polyclonal immunoglobulin G (IgG), lyophilized, Equitech-Bio, Inc. (human); assay: affinity chromatography of IgG from cMEM, yield = IgG eluted / IgG loaded; cycle 50, 49 washes with 0.5 M NaOH
[11] = target: Human polyclonal immunoglobulin G (IgG), lyophilized, Equitech-Bio, Inc. (human); assay: affinity chromatography of IgG from cMEM, yield = IgG eluted / IgG loaded; cycle 1, 0 washes with 0.1 M NaOH
[12] = target: Human polyclonal immunoglobulin G (IgG), lyophilized, Equitech-Bio, Inc. (human); assay: affinity chromatography of IgG from cMEM, yield = IgG eluted / IgG loaded; cycle 25, 24 washes with 0.5 M NaOH
[13] = target: Human polyclonal immunoglobulin G (IgG), lyophilized, Equitech-Bio, Inc. (human); assay: affinity chromatography of IgG from cMEM, yield = IgG eluted / IgG loaded; cycle 30, 29 washes with 1 M NaOH
[14] = target: Human polyclonal immunoglobulin G (IgG), lyophilized, Equitech-Bio, Inc. (human); assay: affinity chromatography of IgG from cMEM, yield = IgG eluted / IgG loaded; cycle 1, 0 washes with 0.5 M NaOH
[15] = target: Human polyclonal immunoglobulin G (IgG), lyophilized, Equitech-Bio, Inc. (human); assay: affinity chromatography of IgG from cMEM, yield = IgG eluted / IgG loaded; cycle 50, 49 washes with 0.1 M NaOH
[16] = target: Human polyclonal immunoglobulin G (IgG), lyophilized, Equitech-Bio, Inc. (human); assay: affinity chromatography, IgG 10 mg/mL in cMEM loaded on 0.1 mL column, eluted with 0.2 M acetate pH 4; yield = IgG eluted / IgG loaded (Protein G HPLC); cycle 1, before any NaOH wash
[17] = target: Human polyclonal immunoglobulin G (IgG), lyophilized, Equitech-Bio, Inc. (human); assay: affinity chromatography, yield = IgG eluted / IgG loaded; cycle 5, after three 0.1 M NaOH washes
[18] = target: Human polyclonal immunoglobulin G (IgG), lyophilized, Equitech-Bio, Inc. (human); assay: affinity chromatography, yield = IgG eluted / IgG loaded; cycle 4, after two 0.1 M NaOH washes
[19] = target: Human polyclonal immunoglobulin G (IgG), lyophilized, Equitech-Bio, Inc. (human); assay: affinity chromatography, yield = IgG eluted / IgG loaded; cycle 2, after phosphoric acid regeneration, before any NaOH wash
[20] = target: Human polyclonal immunoglobulin G (IgG), lyophilized, Equitech-Bio, Inc. (human); assay: affinity chromatography, yield = IgG eluted / IgG loaded; cycle 3, after the first 0.1 M NaOH wash (ligand partly leached)

Row | Binder | IgG yield [1] | IgG yield [2] | IgG yield [3] | IgG yield [4] | IgG yield [5] | IgG yield [6] | IgG yield [7] | IgG yield [8] | IgG yield [9] | IgG yield [10] | IgG yield [11] | IgG yield [12] | IgG yield [13] | IgG yield [14] | IgG yield [15] | IgG yield [16] | IgG yield [17] | IgG yield [18] | IgG yield [19] | IgG yield [20]
1 | HWRGWVA-{modified Toyopearl AF‑Amino‑650M resin} (reading uncertain) [HWRGWV (SEQ ID NO: 1) synthesized on modified Toyopearl AF-Amino-650M resin (density 0.11 meq/g)] | 90% | 80% | 82% | 82% | 76% | 84% | 87% | 88% | 85% | 85% | 91% | 87% | 79% | 89% | 88% |  |  |  |  | 
2 | HWRGWV-{Toyopearl AF‑Amino‑650M resin} (also: coupled partly by amide, partly by ester bonds) |  |  |  |  |  |  |  |  |  |  |  |  |  |  |  | 85% | 21% | 21% | 85% | 23%
